To fix the notation:
T1: AXL-His (Sino Biological Inc., 6x His labels, molecular weight 47.5 Kda) (UniProt P30530-2 26-440, limits assumed)
T1 construct: Bought reagent; also called target antigen AXL-His; target antigen AXL; not shown: 6x His tag
T1 sequence (looked up): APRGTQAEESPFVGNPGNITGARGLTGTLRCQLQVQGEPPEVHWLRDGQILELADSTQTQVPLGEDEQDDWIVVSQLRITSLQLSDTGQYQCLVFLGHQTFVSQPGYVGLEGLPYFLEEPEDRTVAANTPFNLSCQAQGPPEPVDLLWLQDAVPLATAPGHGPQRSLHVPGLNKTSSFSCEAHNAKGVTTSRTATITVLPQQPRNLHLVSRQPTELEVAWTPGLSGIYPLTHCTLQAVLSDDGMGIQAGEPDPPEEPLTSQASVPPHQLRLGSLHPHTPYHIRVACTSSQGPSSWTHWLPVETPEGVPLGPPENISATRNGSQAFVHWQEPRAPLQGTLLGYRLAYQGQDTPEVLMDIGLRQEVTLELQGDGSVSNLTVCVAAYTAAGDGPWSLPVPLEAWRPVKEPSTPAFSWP

T2: MER-His (ACRO Biosystems) (UniProt Q12866 21-499, limits assumed)
T2 construct: Bought reagent; not shown: His tag
T2 sequence (looked up): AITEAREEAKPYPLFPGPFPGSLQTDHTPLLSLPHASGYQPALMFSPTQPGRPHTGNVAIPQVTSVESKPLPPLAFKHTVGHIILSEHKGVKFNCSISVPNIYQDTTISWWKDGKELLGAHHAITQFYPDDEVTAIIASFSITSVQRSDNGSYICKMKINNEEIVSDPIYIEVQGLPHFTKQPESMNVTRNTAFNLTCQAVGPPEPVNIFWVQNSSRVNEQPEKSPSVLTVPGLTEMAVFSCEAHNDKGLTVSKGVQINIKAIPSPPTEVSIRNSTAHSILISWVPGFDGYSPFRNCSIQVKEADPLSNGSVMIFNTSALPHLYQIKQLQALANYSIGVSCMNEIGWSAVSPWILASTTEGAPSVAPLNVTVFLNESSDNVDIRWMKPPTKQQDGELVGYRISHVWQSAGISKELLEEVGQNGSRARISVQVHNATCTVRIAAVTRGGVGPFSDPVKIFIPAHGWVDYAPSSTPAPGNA

B1: antibody 6G12M31 (antibody, V domains shown)
VH: QVQLVQSGPGLVKPSQSLSLTCSVTGFSISSGYYWNWIRQFPGQKLEWMGYRSYDGSNNYDPSLKNRISITRDTSKNQFFLKLNSVTSEDTATYYCARGWLLHYTMDYWGQGTTVTVSS
VL: DIVMTQSPSSVSVTLGQSASISCRSSRSLLHSNGFTYLYWYLQKPGQSPQLLIYQMSNLASGVPDRFSGSGSGTDFTLKISRVEAEDVGVYYCGQNLELPLTFGGGTKLEIK
B2: antibody 6G12M11 (antibody, human IgG1, kappa, V domains shown)
VH: B1 VH with S23A, D61N
VL: EIVMTQSPSSVSVTLGQSASISCRSSRSLLHSNGFTYLYWYLQKPGQSPQLLIYQMSNLASGVPDRFSGSGSGTDFTLKISRVEAEDVGVYYCGQNLELPLTFGGGTKLEIKR
B3: antibody 6G12M41 (antibody, V domains shown)
VH: B1 VH with D61G
VL: B1 VL
B4: antibody 6G12M21 (antibody, human IgG1, kappa, V domains shown)
VH: B1 VH with D61N
VL: B2 VL with E1D

Positions count from the first letter of the chain named.

One assay addresses T1, AXL-His (Sino Biological Inc., 6x His …). Description: SPR (Biacore T-200), antibody captured on chip, AXL-His as analyte. As to the method: In this test, the affinity of AXL-His to each of the antibodies 6G12M11, 6G12M21, 6G12M31, and 6G12M41 was detected by the surface plasmon resonance technology. The test instrument used was BIACOR biomacromolecule interaction instrument (GE Healthcare, T-200). The antibodies 6G12M11, 6G12M21, 6G12M31, and 6G12M41 were immobilized on the surface of a chip by an antibody capturing method, and with all the concentrations set to 0.5 μg/mL, were injected for 60 seconds at a flow rate of 10 μL/min. The prepared AXL-His (Sino Biological Inc., 6× His labels, molecular weight: 47.5 Kda) as a mobile phase was let to flow through the surface of the chip under 5 concentration gradients (8, 4, 2, 1, 0.5 μg/mL) respectively for interaction determination. The AXL-His underwent association for 120 s and dissociation for 1800 s at the flow rate of 30 μL/min.
A word on the Kd: it is the equilibrium constant for the complex coming apart. A low value points to tighter binding. Broadly, the koff is a measure of how fast the partners let go of each other. A low value points to slow dissociation. The term kon denotes the rate constant with which the complex forms. A lower kon goes with slow association. In turn, B1 displayed a Kd of 29.2 nM, a koff of 0.00116 s⁻¹ and a kon of 39700 M⁻¹ s⁻¹.
On to B2, for which the Kd was 11.7 nM, the koff came out at 0.00114 s⁻¹ and the kon was 97400 M⁻¹ s⁻¹.
As to B3, the Kd was found to be 28.7 nM, the koff worked out at 0.00119 s⁻¹ and the kon stood at 41500 M⁻¹ s⁻¹.
The corresponding values for B4 are 10.2 nM, 0.00114 s⁻¹ and 112000 M⁻¹ s⁻¹.

Another assay deals with T2, MER-His (ACRO Biosystems). Nature of the assay: ELISA, MER-His coated at 1 µg/ml, anti-human IgG Fab-HRP, OD450. As to the method:
AXL, TRYO3, and MER are all members of the TYRO3 receptor tyrosine kinase subfamily. To verify the recognition specificity of the antibodies 6G12M11, 6G12M21, 6G12M31 and 6G12M41, the binding ability of these antibodies to other members of the AXL family is tested by the ELISA method.
(§1) TYRO3-Fc (ACRO Biosystems), MER-His (ACRO Biosystems), and AXL-His (Sino Biological Inc.) each were coated at 1 μg/ml on an ELISA strip, which was held at 4° C. overnight. After the ELISA strips were washed with PBST, 10% fetal bovine serum was added to the ELISA strip, which was blocked for 1 hour at 37° C. Antibodies […], 6G12M21, 6G12M31 and 6G12M41 were added to react at 37° C. for 1 hour. After the ELISA strips were washed with PBST, horseradish peroxidase-labeled goat anti-human IgG Fab secondary antibodies (Goat Anti-Human IgG (Fab′)₂ (HRP), Abcam) were added to react for 30 minutes at 37° C. The ELISA strips were washed 5 times with PBST, and patted and dried on absorbent paper to remove residual droplets as much as possible. 100 μl of TMB (eBioscience, #85-00-420) was added to each well, and the ELISA strips were held for 1.5 min at room temperature (20±5° C.) in the dark. 100 μl of 2N H₂SO₄ stop solution was added to each well to terminate substrate reaction. The OD value was read at 450 nm by a microplate reader to analyze the binding ability of antibodies to the proteins.
(An ELISA detects its analyte on a solid surface through an enzyme-linked reagent.)
B1: the binding result is “no binding (tested: about 1 µg/mL)”.
On the same count and under the same terms, for B2 the value was “no binding (tested: about 1 µg/mL)”.
Same read-out and setting: for B3 the value was “no binding (tested: about 1 µg/mL)”; for B4, “no binding (tested: about 1 µg/mL)”.

For a further assay, the target named is T1, AXL-His (Sino Biological Inc., 6x His …). Description: ELISA, AXL-His coated at 1 µg/ml, anti-human IgG Fab-HRP, OD450. As to the method:
as §1
A word on the EC50 (read off the curve): it is the concentration needed to bring the measured effect to its halfway point. A high value points to weaker potency. With B1, the “EC50 (read off the curve)” value is about 0.03 µg/mL.
The same measure, in the same setting: with B2 the figure was about 0.03 µg/mL.
On the same count and under the same terms, with B3 the figure was about 0.03 µg/mL; with B4, about 0.03 µg/mL.

(Values after US20220411531A1 (SUMGEN MAB BEIJING BIOTECH, published 2022).)
